Measured values taken from US20220098328A1, “ANTIBODIES TO M(H)DM2/4 AND THEIR USE IN DIAGNOSING AND TREATING CANCER” (NomoCan Pharmaceuticals LLC, priority 2017, published 2022).
Blank lines part the entries; values can stand above or below the molecule they belong to.

Key:
[1] = test system: human pancreatic cancer MIA PaCa-2 cells; test: Cell-ELISA on intact cells; assay type: cell-based
Description: (§1) Cell-ELISA Methodology: 8,000-10,000 cells/well of a 96-well microplate were grown overnight. The next day, unbound cells were washed off with sterile 1×PBS. The cells in each well were fixed with freshly prepared 4% buffered paraformaldehyde (pH 7.2) for 1 hour followed by 3 washes with 1×PBS. The wells were then blocked with 5% BSA in PBS (100 μl/well) for 2 hours at room temperature. Microplate wells were then washed 5 times with 300 μl of ice cold 1×PBS. MAbs NMC-103, NMC-204 or NMC-303 at 1 μg/mL in 1% BSA/PBS were then incubated with various cancer or normal untransformed cells for 2 hours at room temperature. Wells were then washed with 300 μl of ice-cold 1×PBS for 5 times and corresponding secondary antibody HRP-GaM F(ab′)2 diluted 1:2500 or 1:5000 in PBS with 1% BSA were added at 100 μl/well for 1 hour at room temperature followed by washing 5 times with 300 μl of ice-cold 1×PBS. TMB Substrate Solution (1-Step™ Ultra TMB-ELISA, ThermoFisher, Cat. No. 34028) was then added at 50 μL to each microplate well and incubated at room temperature for 30 minutes. The reaction was stopped by addition of 50 μL of stop solution (ThermoFisher, Cat. No. SS04) to each well and absorbance of each well was measured at OD450 nm. The absorbance value of each experimental well was corrected for the absorbance value obtained from wells treated with isotype-identical mAbs included in each experiment. The results are thus expressed as “relative binding”.
(§2) In a 96-well microplate, 15,000 cells/well were cultured overnight. The next day, unbound cells were washed off with sterile 1×PBS. The cells in each well were fixed with freshly prepared 4% buffered paraformaldehyde (pH 7.2) for 1 hour, followed by 3 washes with 1×PBS. The wells were then blocked with 5% BSA in PBS (100 μl/well) for 2 hours at room temperature. Microplate wells were then washed 5 times with 300 μl of ice cold 1×PBS. Monoclonal antibodies NMC-H103 (VH4/VK3) or NMC-C303 at 5 μg/mL in 1% BSA/PBS were then incubated with various cancer cells for 2 hours at room temperature. Wells were then washed with 300 μl of ice-cold 1×PBS for 5 times and corresponding secondary antibody HRP-GaH F(ab′)2 diluted 1:2000 or 1:4000 in PBS with 1% BSA were added at 100 μl/well for 1 hour at room temperature followed by washing 5 times with 300 μl of ice-cold 1×PBS. TMB Substrate Solution (1-Step™ Ultra TMB-ELISA, ThermoFisher, Cat. No. 34028) was then added at 50 μL to each microplate well and incubated at room temperature for 30 minutes. The reaction was stopped by addition of 50 μL of stop solution (ThermoFisher, Cat. No. SS04) to each well and absorbance of each well was measured at OD450 nm. The absorbance value of each experimental well was corrected for the absorbance value obtained from wells treated with isotype-identical mAbs included in each experiment.

[2] = test system: human, murine, rabbit protein; parameters: key: H—binds to human protein; M—binds to murine protein; R—binds to rabbit protein; conditions: cited from earlier work
[3] = test system: plasma membrane M(H)DM2/4; test: Plasma membrane M(H)DM2/4 after treatment of cells with chemotherapeutic agents (in vitro); assay type: cell-based; conditions: data not shown
[4] = target: E-Cadherin on intact mouse LL/2 cancer cells (mouse) (UniProt P09803); test: cell-based ELISA on intact LL/2 cells, 5 µg/mL, OD450
[5] = target: NMC-P3 peptide (SEQ ID NO:3), amino acids 475-491 of HDM2 (Homo sapiens, UniProt Q00987); test: Peptide-ELISA; assay type: binding; conditions: 5 μg/ml peptide on plate, OD 450 nm
Description: Peptide-ELISA Methodology: 5 μg/ml of NMC-P1, NMC-P2 or NMC-P3 peptide antigen was dried onto a 96-well ELISA plate overnight. Plates were then blocked with 5% BSA in 1× phosphate-buffered saline (PBS) (100 μl/well) for 2 hours at room temperature. Microplate wells were then washed 5 times with 300 μl of ice cold 1×PBS. Appropriate dilutions of monoclonal antibodies NMC-103, NMC-204 or NMC-303 in 1% bovine serum albumin (BSA) in PBS solution were then incubated with their corresponding peptides (NMC-P1, NMC-P2 or NMC-P3, respectively) at room temperature. After 2 hours, wells were washed 5 times with 300 μl ice-cold PBS/well and 100 μl secondary antibody (HRP-labeled Goat anti-Mouse F(ab′)2 H&L cross-adsorbed secondary antibody (HRP-GaM F(ab′)2), ThermoFisher, Cat. No. A24524) diluted 1:2500 to 1:5000 in PBS-1% BSA solution were added and the incubation continued at room temperature. After 1 hour, the wells were washed again 5 times with 200 μl of ice-cold PBS and 50 μL of the TMB Substrate Solution (1-Step™ Ultra TMB-ELISA, ThermoFisher, Cat. No. 34028) were added to each well and color was allowed to develop for 30 minutes at room temperature. The reaction was stopped by addition of 50 μL of stop solution (ThermoFisher, Cat. No. SS04) to each well and absorbance of each well was read immediately for optical density (OD) at 450 nm.

[6] = target: T1, recombinant HDM2 protein (GST tagged) (Homo sapiens, UniProt Q00987); test: Western blot (immunoblot); assay type: binding; conditions: 1 μg/well protein, antibody 1 μg/ml; band at approximately 83 kD
T1 construct: NMC-103, NMC-204 and NMC-303 reacted with the recombinant full-length HDM2 protein; purchased Abcam ab188727
Description: Western Blot: As for immunoblots, 1 μg/well of recombinant HDM2 protein (GST tagged, Abcam, Cat. No. ab188727) was separated on 8-16% sodium dodecyl sulfate (SDS) polyacrylamide gel and proteins were then transferred to polyvinylidene difluoride (PVDF) membrane. The membrane was blocked with 5% milk followed by incubation with monoclonal antibody NMC-103, NMC-204 or NMC-303 at 1 μg/ml in 1% milk in PBS for 2 hours. The membrane was then washed ×3 times (10 minutes each) and incubated for 1 hour with corresponding HRP-conjugated secondary antibody (Goat anti-Mouse IgG (H&L), F(ab′)2 Frag Cross-adsorbed HRP (HRP-GaM F(ab′)2), ThermoFisher, Cat. No. A24524) diluted 1:5000 in 1% BSA-PBS. The membrane was then washed ×3 times and incubated with Pierce ECL Plus Western Blotting Substrate (ThermoFisher, Cat. No. #32132) for 10 min before developing on a LICOR Scanner.

[7] = test system: human breast cancer MCF-7 cells; test: Cell-ELISA on intact cells; assay type: cell-based; conditions: MCF-7; mAb 1 μg/mL; fixed, non-permeabilized cells
Description: as §1, §2

[8] = test system: human melanoma A2058 cells; test: Cell-ELISA on intact cells; assay type: cell-based; conditions: A2058; mAb 1 μg/mL; fixed, non-permeabilized cells
Description: as §1, §2

[9] = test system: human ovarian cancer OVCAR-3 cells; test: Cell-ELISA on intact cells; assay type: cell-based; conditions: OVCAR-3 (resistant to adriamycin, melphalan, cisplatin); mAb 1 μg/mL; fixed, non-permeabilized cells
Description: as §1, §2

[10] = test system: mouse Lewis Lung LL/2 cells; test: Cell-ELISA on intact cells; assay type: cell-based; conditions: LL/2; mAb 1 μg/mL; fixed, non-permeabilized cells
Description: as §1, §2

[11] = test system: mouse colon cancer MC-38 cells; test: Cell-ELISA on intact cells; assay type: cell-based; conditions: MC-38; mAb 1 μg/mL; fixed, non-permeabilized cells
Description: as §1, §2

[12] = test system: mouse pancreatic Panc02 cells; test: Cell-ELISA on intact cells; assay type: cell-based; conditions: Panc02; mAb 1 μg/mL; fixed, non-permeabilized cells
Description: as §1, §2

[13] = test system: primary patient-derived human ovarian cancer OVCA4 cells; test: Cell-ELISA on intact cells; assay type: cell-based; conditions: OVCA4; mAb 1 μg/mL; fixed, non-permeabilized cells
Description: as §1, §2

[14] = test system: human triple negative breast cancer HCC1806 cells; test: Cell-ELISA on intact cells; assay type: cell-based; conditions: mAb 1 μg/mL, fixed, non-permeabilized cells
Description: as §1

[15] = test system: human uveal melanoma 92.1 cells; test: Cell-ELISA on intact cells; assay type: cell-based; conditions: mAb 1 μg/mL, fixed, non-permeabilized cells
Description: as §1

[16] = test system: normal human peripheral blood mononuclear cells (PBMCs); test: Cell-ELISA on intact cells; assay type: cell-based; conditions: freshly isolated normal human PBMCs
Description: as §1

T1 sequence (Q00987 whole entry): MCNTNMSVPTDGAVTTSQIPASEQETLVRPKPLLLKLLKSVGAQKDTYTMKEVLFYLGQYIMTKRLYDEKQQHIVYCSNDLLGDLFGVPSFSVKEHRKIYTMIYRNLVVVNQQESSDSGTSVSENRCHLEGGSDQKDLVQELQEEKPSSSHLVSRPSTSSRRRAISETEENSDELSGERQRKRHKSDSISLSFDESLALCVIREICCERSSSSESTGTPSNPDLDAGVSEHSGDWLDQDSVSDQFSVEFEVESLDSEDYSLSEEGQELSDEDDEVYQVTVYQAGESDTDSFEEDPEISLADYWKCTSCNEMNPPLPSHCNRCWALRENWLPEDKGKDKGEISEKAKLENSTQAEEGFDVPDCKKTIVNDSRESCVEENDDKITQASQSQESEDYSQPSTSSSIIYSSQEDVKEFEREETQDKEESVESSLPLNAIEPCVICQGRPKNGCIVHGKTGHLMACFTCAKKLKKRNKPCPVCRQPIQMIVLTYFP
Chain of E-Cadherin on intact mouse LL/2 cancer cells (mouse) (P09803 157-884): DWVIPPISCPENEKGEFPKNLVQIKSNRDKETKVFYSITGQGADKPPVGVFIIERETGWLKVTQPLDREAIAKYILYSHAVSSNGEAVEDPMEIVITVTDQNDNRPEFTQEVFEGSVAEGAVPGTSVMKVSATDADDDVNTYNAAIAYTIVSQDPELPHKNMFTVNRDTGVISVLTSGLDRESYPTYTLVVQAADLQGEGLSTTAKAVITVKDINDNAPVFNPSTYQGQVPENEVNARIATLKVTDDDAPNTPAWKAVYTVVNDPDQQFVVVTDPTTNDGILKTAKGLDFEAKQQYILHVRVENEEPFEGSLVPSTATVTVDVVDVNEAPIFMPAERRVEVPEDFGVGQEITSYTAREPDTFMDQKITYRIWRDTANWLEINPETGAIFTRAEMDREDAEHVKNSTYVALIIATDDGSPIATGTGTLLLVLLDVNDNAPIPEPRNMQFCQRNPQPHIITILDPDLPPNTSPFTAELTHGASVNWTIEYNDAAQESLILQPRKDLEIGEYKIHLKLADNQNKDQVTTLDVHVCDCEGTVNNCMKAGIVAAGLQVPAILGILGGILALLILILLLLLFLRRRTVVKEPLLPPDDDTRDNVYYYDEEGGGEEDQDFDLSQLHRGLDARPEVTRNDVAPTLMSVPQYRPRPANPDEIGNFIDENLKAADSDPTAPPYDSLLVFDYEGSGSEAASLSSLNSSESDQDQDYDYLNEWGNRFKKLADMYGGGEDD

Molecule: Cytochrome C [reference compound]
- binding to intact, EDTA-released MiaPaCa-2 cells, cell-ELISA ([1]; EDTA 10 mmols, pH 7.2, 5 min, 37° C.): only minimal binding
- Species Reactivity [2]: H

Molecule: Nc1ccn([C@@H]2O[C@H](CO)[C@@H](O)C2(F)F)c(=O)n1 [Gemcitabine]
- plasma membrane M(H)DM2/4 level of treated cells [3]: increase in plasma membrane M(H)DM2/4

- average OD reading [4]: 1.49 OD
Molecule: E-cadherin G10 (SC-8426) (antibody)

Molecule: CC(=O)O[C@H]1C(=O)[C@@]2(C)[C@H]([C@H](OC(=O)c3ccccc3)[C@]3(O)C[C@H](OC(=O)[C@H](O)[C@@H](NC(=O)c4ccccc4)c4ccccc4)C(C)=C1C3(C)C)[C@]1(OC(C)=O)CO[C@@H]1C[C@@H]2O [Paclitaxel]
- plasma membrane M(H)DM2/4 level of treated cells [3]: increase in plasma membrane M(H)DM2/4

- binding to NMC-P3 peptide [5]: bound
- reactivity with recombinant full-length HDM2-GST protein (immunoblot) [6]: reacted
B1: NMC-303: mouse monoclonal antibody of the IgM isotype that binds to NMC-P3 (SEQ ID NO:3); VH SEQ ID NO:40, VL SEQ ID NO:41 (antibody, V domains shown)
VH: QVQLQQPGAELVKPGASVKLSCKASGYTFTSYYMYWVKQRPGQGLEWIGGINPRNGGTNFNEKFKNKATLTADKSSTTAYMQLSSLTSEDSAVYYCTRSGYYAMDYWGQGTSVTVSS
VL: DIQMTQTTSSLSASLGDRVTISCRASQDISNFLNWYQQKPDGTVKLLIYYTSRLHSGVPSRFSGSGSGTDYSLTISNLEQEDIATYFCQQGNTLPRTFGGGTKLEIK
modifications: mAb NMC-303 Heavy Chain Variable Region; mAb NMC-303 Light Chain Variable Region
- relative binding (reactivity) to intact cells, cell-ELISA [7]: reactivity
- relative binding (reactivity) to intact cells, cell-ELISA [8]: reactivity
- relative binding (reactivity) to intact cells, cell-ELISA [9]: reactivity
- relative binding (reactivity) to intact cells, cell-ELISA ([1]; MIA PaCa-2, mAb 1 μg/mL, fixed, non-permeabilized cells): reactivity
- binding to intact MIA PaCa-2 cells when competed with NMC-P3 peptide ([1]; cell-ELISA peptide competition): competed
- relative binding (reactivity) to intact cells, cell-ELISA [10]: reactivity
- relative binding (reactivity) to intact cells, cell-ELISA [11]: reactivity
- relative binding (reactivity) to intact cells, cell-ELISA [12]: reactivity
- relative binding (reactivity) to intact cells, cell-ELISA [13]: reactivity
- relative binding (reactivity) to intact cells, cell-ELISA [14]: reactivity
- relative binding (reactivity) to intact cells, cell-ELISA [15]: reactivity
- binding to intact normal cells, cell-ELISA [16]: virtually no binding
